These sequences were tested on Escherichia coli TOP10 (assay: shrunken log2 fold change of peptide-encoding DNA abundance (4.5 h post-induction vs induction); higher = less antimicrobial activity (less host growth inhibition)). Conditions: time post-induction: 4.5 h; library: site-saturation at positions 5, 18, 19, 20.
With RRIRWRPPRLPRPRPRPSYLPRP the “shrunken log2 fold change” value was -0.417. In the case of RRIRIRPPRLPRPRPRPMIKPRP, the “shrunken log2 fold change” value is reported as -0.761. In the case of RRIRWRPPRLPRPRPRPFHWPRP, the “shrunken log2 fold change” value is reported as 0.175. With RRIRERPPRLPRPRPRPTRMPRP the “shrunken log2 fold change” value was 0.084. In the case of RRIRYRPPRLPRPRPRPNCFPRP, the “shrunken log2 fold change” value is reported as -0.43. With RRIRLRPPRLPRPRPRPNSKPRP the “shrunken log2 fold change” value was -0.706. RRIRFRPPRLPRPRPRPCYMPRP was tested, and the “shrunken log2 fold change” value was 1.54. In the case of RRIRKRPPRLPRPRPRPFGTPRP, the “shrunken log2 fold change” value is reported as -0.0368. For RRIRQRPPRLPRPRPRPFFLPRP, the “shrunken log2 fold change” value was -0.376. With RRIRSRPPRLPRPRPRPCKNPRP the “shrunken log2 fold change” value was -0.283. For RRIRERPPRLPRPRPRPVCPPRP, the “shrunken log2 fold change” value was -0.162. In the case of RRIRPRPPRLPRPRPRPNDVPRP, the “shrunken log2 fold change” value is reported as -0.206. RRIRMRPPRLPRPRPRPQFYPRP was tested, and the “shrunken log2 fold change” value was -0.263. With RRIRTRPPRLPRPRPRPYVEPRP the “shrunken log2 fold change” value was -1.12. For RRIRCRPPRLPRPRPRPGADPRP, the “shrunken log2 fold change” value was 0.484. RRIRWRPPRLPRPRPRPDTAPRP was tested, and the “shrunken log2 fold change” value was -0.192. RRIRSRPPRLPRPRPRPRDNPRP was tested, and the “shrunken log2 fold change” value was -0.0866. For RRIRPRPPRLPRPRPRPDNFPRP, the “shrunken log2 fold change” value was -1.15. With RRIRKRPPRLPRPRPRPHDCPRP the “shrunken log2 fold change” value was 0.108. For RRIRSRPPRLPRPRPRPRQRPRP, the “shrunken log2 fold change” value was 0.293. RRIRHRPPRLPRPRPRPCINPRP was tested, and the “shrunken log2 fold change” value was -0.306. For RRIRPRPPRLPRPRPRPFENPRP, the “shrunken log2 fold change” value was -0.00884. For RRIRDRPPRLPRPRPRPLRYPRP, the “shrunken log2 fold change” value was 0.00765. With RRIRGRPPRLPRPRPRPLKNPRP the “shrunken log2 fold change” value was 0.459. For RRIRHRPPRLPRPRPRPPDWPRP, the “shrunken log2 fold change” value was 0.536. With RRIRDRPPRLPRPRPRPPTDPRP the “shrunken log2 fold change” value was 0.564. For RRIRERPPRLPRPRPRPVRKPRP, the “shrunken log2 fold change” value was -0.0457. RRIRNRPPRLPRPRPRPPIHPRP was tested, and the “shrunken log2 fold change” value was -0.582. With RRIRERPPRLPRPRPRPFIDPRP the “shrunken log2 fold change” value was -0.288. In the case of RRIRHRPPRLPRPRPRPGDFPRP, the “shrunken log2 fold change” value is reported as -0.147. For RRIRNRPPRLPRPRPRPAHQPRP, the “shrunken log2 fold change” value was -0.108. For RRIRERPPRLPRPRPRPGHRPRP, the “shrunken log2 fold change” value was -0.117. With RRIRERPPRLPRPRPRPGCRPRP the “shrunken log2 fold change” value was 0.0043. With RRIRGRPPRLPRPRPRPTNIPRP the “shrunken log2 fold change” value was 0.298. For RRIRARPPRLPRPRPRPGDTPRP, the “shrunken log2 fold change” value was 0.264. With RRIRCRPPRLPRPRPRPLAHPRP the “shrunken log2 fold change” value was -0.0666. RRIRGRPPRLPRPRPRPRFSPRP was tested, and the “shrunken log2 fold change” value was 0.0932. RRIRIRPPRLPRPRPRPNDTPRP was tested, and the “shrunken log2 fold change” value was -1.01. RRIRFRPPRLPRPRPRPQYPPRP was tested, and the “shrunken log2 fold change” value was 0.041. With RRIRPRPPRLPRPRPRPTSCPRP the “shrunken log2 fold change” value was 0.193. With RRIRDRPPRLPRPRPRPDTKPRP the “shrunken log2 fold change” value was 0.0114. RRIRMRPPRLPRPRPRPEGFPRP was tested, and the “shrunken log2 fold change” value was 2.81. RRIRRRPPRLPRPRPRPQSSPRP was tested, and the “shrunken log2 fold change” value was -0.0217. For RRIRLRPPRLPRPRPRPHQTPRP, the “shrunken log2 fold change” value was 0.001. RRIRQRPPRLPRPRPRPAFKPRP was tested, and the “shrunken log2 fold change” value was -0.015. For RRIRLRPPRLPRPRPRPWVPPRP, the “shrunken log2 fold change” value was -0.569. RRIRNRPPRLPRPRPRPYCCPRP was tested, and the “shrunken log2 fold change” value was -0.564. With RRIRSRPPRLPRPRPRPTFQPRP the “shrunken log2 fold change” value was 0.0282. With RRIRKRPPRLPRPRPRPDPYPRP the “shrunken log2 fold change” value was -0.0561. In the case of RRIRWRPPRLPRPRPRPWFDPRP, the “shrunken log2 fold change” value is reported as 2.76. With RRIRMRPPRLPRPRPRPVEFPRP the “shrunken log2 fold change” value was -0.0638. For RRIRWRPPRLPRPRPRPESIPRP, the “shrunken log2 fold change” value was 0.2. In the case of RRIRVRPPRLPRPRPRPKSYPRP, the “shrunken log2 fold change” value is reported as -0.425. For RRIRLRPPRLPRPRPRPAFEPRP, the “shrunken log2 fold change” value was 0.36. In the case of RRIRARPPRLPRPRPRPWGIPRP, the “shrunken log2 fold change” value is reported as -0.0125. In the case of RRIRFRPPRLPRPRPRPHTGPRP, the “shrunken log2 fold change” value is reported as -0.411. In the case of RRIRHRPPRLPRPRPRPFWIPRP, the “shrunken log2 fold change” value is reported as -0.364. RRIRGRPPRLPRPRPRPQLDPRP was tested, and the “shrunken log2 fold change” value was 0.646. For RRIRPRPPRLPRPRPRPGICPRP, the “shrunken log2 fold change” value was -0.0417. RRIRFRPPRLPRPRPRPCHMPRP was tested, and the “shrunken log2 fold change” value was -0.285. For RRIRMRPPRLPRPRPRPCEVPRP, the “shrunken log2 fold change” value was -0.181. In the case of RRIRCRPPRLPRPRPRPMGHPRP, the “shrunken log2 fold change” value is reported as -0.262. With RRIRGRPPRLPRPRPRPCNNPRP the “shrunken log2 fold change” value was 0.0304. For RRIRARPPRLPRPRPRPTAQPRP, the “shrunken log2 fold change” value was 0.936. For RRIRIRPPRLPRPRPRPPPHPRP, the “shrunken log2 fold change” value was 0.392. For RRIRLRPPRLPRPRPRPNMCPRP, the “shrunken log2 fold change” value was 0.0102. With RRIRSRPPRLPRPRPRPNWAPRP the “shrunken log2 fold change” value was 0.64. With RRIRIRPPRLPRPRPRPHDHPRP the “shrunken log2 fold change” value was -0.174. RRIRLRPPRLPRPRPRPNKDPRP was tested, and the “shrunken log2 fold change” value was -0.683. In the case of RRIRPRPPRLPRPRPRPIQEPRP, the “shrunken log2 fold change” value is reported as -0.019. RRIRLRPPRLPRPRPRPRDPPRP was tested, and the “shrunken log2 fold change” value was 0.968. For RRIRERPPRLPRPRPRPTSGPRP, the “shrunken log2 fold change” value was 0.0416. In the case of RRIRWRPPRLPRPRPRPEKMPRP, the “shrunken log2 fold change” value is reported as -0.0237. In the case of RRIRHRPPRLPRPRPRPYVRPRP, the “shrunken log2 fold change” value is reported as 0.017. With RRIRRRPPRLPRPRPRPFNCPRP the “shrunken log2 fold change” value was -0.301.
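Further: peptides expressed intracellularly from a pBAD plasmid library in pooled LB shake-flask culture, induced with 0.3% L-arabinose, DNA abundance read by NGS, three biological replicates, DESeq2 with apeglm shrinkage.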
